Data taken from the Human Domainome abundance scans (Beltran et al. 2025).
± gives the uncertainty stated by the source.

B1: F-BAR and double SH3 domains protein 1, residues 467 to 528; numbered along this chain, Q86WN1 (parent)
chain: RALPCPAHVVFRYQAGREDELTITEGEWLEVIEEGDADEWVKARNQHGEVGFVPERYLNFPD

Variants of: B1
Assay: abundance fitness (aPCA) (normalised: wild type 0, dead -1); higher = more abundant; growth selection in yeast, the domain comes from the species named
Details: Homo sapiens

A43I and A43C are within error of each other in abundance fitness: -0.297 ± 0.2 for the first, -0.038 ± 0.12 for the second.

A43S and A43M are within error of each other in abundance fitness: -0.578 ± 0.079 for the first, -0.548 ± 0.11 for the second.

L58H and L58Q are within error of each other in abundance fitness: -1.12 ± 0.32 for the first, -0.819 ± 0.14 for the second.

L58W and G51M are within error of each other in abundance fitness: -0.829 ± 0.07 for the first, -0.843 ± 0.12 for the second.

G51D and G51A are within error of each other in abundance fitness: -0.706 ± 0.19 for the first, -0.691 ± 0.1 for the second.

Going from G51C to G51K, the abundance fitness rises from -0.958 ± 0.15 to -0.42 ± 0.28.

First: G51H
Second: F11E
The abundance fitness of the first is lower: -0.973 ± 0.38 for the first, 0.109 ± 0.091 for the second.

F11C and F11Y are within error of each other in abundance fitness: 0.014 ± 0.058 for the first, 0.032 ± 0.1 for the second.

F11K and F11Q are within error of each other in abundance fitness: 0.017 ± 0.065 for the first, -0.103 ± 0.07 for the second.

A37M and A37D are within error of each other in abundance fitness: 0.018 ± 0.056 for the first, -0.048 ± 0.13 for the second.

C5G and C5A are within error of each other in abundance fitness: -0.386 ± 0.094 for the first, -0.479 ± 0.24 for the second.

First: C5P
Second: E34Q
The abundance fitness of the first is lower: -0.857 ± 0.15 for the first, -0.026 ± 0.062 for the second.

E34H and E34W are within error of each other in abundance fitness: -0.071 ± 0.12 for the first, -0.074 ± 0.063 for the second.

E34L and E34C are within error of each other in abundance fitness: -0.028 ± 0.044 for the first, 0.008 ± 0.072 for the second.

Compared with E34T, V10E is lower in abundance fitness: -0.048 ± 0.067 for the first, -0.247 ± 0.11 for the second.

First: V10R
Second: V10Q
The abundance fitness of the first is higher: -0.098 ± 0.057 for the first, -0.733 ± 0.29 for the second.

Compared with V10F, V10G is higher in abundance fitness: -0.465 ± 0.14 for the first, -0.179 ± 0.049 for the second.

V10H and R56K are within error of each other in abundance fitness: -0.158 ± 0.23 for the first, 0.033 ± 0.057 for the second.

R56E and R56D are within error of each other in abundance fitness: 0.053 ± 0.081 for the first, -0.074 ± 0.11 for the second.

First: R56Q
Second: A7Q
The abundance fitness of the first is higher: 0.012 ± 0.053 for the first, -0.854 ± 0.15 for the second.

Compared with A7S, A7W is lower in abundance fitness: -0.631 ± 0.074 for the first, -0.98 ± 0.23 for the second.

Q46E and Q46V are within error of each other in abundance fitness: -0.052 ± 0.056 for the first, -0.088 ± 0.044 for the second.

Going from Q46R to P54F, the abundance fitness falls from -0.028 ± 0.047 to -0.287 ± 0.075.

Compared with P54N, P54T is lower in abundance fitness: 0.198 ± 0.13 for the first, -0.831 ± 0.11 for the second.

Going from P54G to P54V, the abundance fitness falls from -0.299 ± 0.059 to -0.638 ± 0.09.

T22M and T22Y are within error of each other in abundance fitness: -0.652 ± 0.088 for the first, -0.844 ± 0.22 for the second.

Going from T22Q to T22L, the abundance fitness falls from -0.581 ± 0.12 to -0.778 ± 0.065.

W40S and W40E are within error of each other in abundance fitness: -0.25 ± 0.05 for the first, -0.196 ± 0.09 for the second.

W40M and W40R are within error of each other in abundance fitness: 0.037 ± 0.073 for the first, 0.121 ± 0.042 for the second.

Going from W40K to K42D, the abundance fitness falls from -0.051 ± 0.075 to -0.664 ± 0.17.

K42W and K42Y are within error of each other in abundance fitness: -0.181 ± 0.083 for the first, -0.381 ± 0.15 for the second.

First: E18L
Second: E18C
The abundance fitness of the first is lower: -0.23 ± 0.044 for the first, -0.076 ± 0.086 for the second.

Compared with E18Q, E18V is lower in abundance fitness: 0.01 ± 0.079 for the first, -0.134 ± 0.049 for the second.

First: E18T
Second: E18K
The abundance fitness of the first is higher: -0.013 ± 0.071 for the first, -0.238 ± 0.086 for the second.

Going from H8N to H8T, the abundance fitness rises from -0.392 ± 0.11 to -0.213 ± 0.067.

First: H8V
Second: H8G
The abundance fitness of the first is higher: -0.349 ± 0.068 for the first, -0.651 ± 0.088 for the second.

First: H8C
Second: T24R
The abundance fitness of the first is lower: -0.28 ± 0.11 for the first, -0.037 ± 0.059 for the second.

T24D and T24Q are within error of each other in abundance fitness: 0.087 ± 0.088 for the first, 0.051 ± 0.082 for the second.

Going from T24F to T24P, the abundance fitness falls from -0.247 ± 0.082 to -0.879 ± 0.12.

Going from T24A to V50D, the abundance fitness falls from -0.117 ± 0.055 to -0.599 ± 0.25.

V50I and V50T are within error of each other in abundance fitness: -0.235 ± 0.12 for the first, -0.11 ± 0.078 for the second.

V50M and N59V are within error of each other in abundance fitness: -0.108 ± 0.07 for the first, -0.078 ± 0.046 for the second.

N59E and N59F are within error of each other in abundance fitness: 0.028 ± 0.06 for the first, -0.091 ± 0.075 for the second.

N59S and V41C are within error of each other in abundance fitness: -0.036 ± 0.042 for the first, -0.013 ± 0.069 for the second.

V41P and V41Q are within error of each other in abundance fitness: -0.94 ± 0.2 for the first, -0.949 ± 0.18 for the second.

D19V and D19A are within error of each other in abundance fitness: 0.103 ± 0.056 for the first, 0.092 ± 0.061 for the second.

D19C and D19S are within error of each other in abundance fitness: 0.087 ± 0.099 for the first, 0.044 ± 0.039 for the second.

Compared with D19L, D19W is lower in abundance fitness: -0.086 ± 0.037 for the first, -0.426 ± 0.084 for the second.

D19K and E39Q are within error of each other in abundance fitness: -0.05 ± 0.063 for the first, -0.027 ± 0.078 for the second.

E39M and E39H are within error of each other in abundance fitness: 0.148 ± 0.071 for the first, 0.188 ± 0.1 for the second.

E39R and E39G are within error of each other in abundance fitness: 0.017 ± 0.051 for the first, 0.066 ± 0.064 for the second.

Compared with E39W, E39S is higher in abundance fitness: -0.227 ± 0.069 for the first, 0.028 ± 0.051 for the second.

Compared with E39K, E39Y is lower in abundance fitness: 0.013 ± 0.072 for the first, -0.226 ± 0.097 for the second.

Going from V9C to V9L, the abundance fitness falls from -0.32 ± 0.15 to -0.835 ± 0.075.

V9S and V9D are within error of each other in abundance fitness: -0.752 ± 0.09 for the first, -0.764 ± 0.27 for the second.

V9Y and V9Q are within error of each other in abundance fitness: -0.631 ± 0.15 for the first, -0.607 ± 0.13 for the second.

A15T and A15C are within error of each other in abundance fitness: -0.714 ± 0.13 for the first, -0.536 ± 0.097 for the second.

Going from A15E to A15F, the abundance fitness falls from -0.438 ± 0.12 to -0.956 ± 0.37.

First: D36Q
Second: D36A
The abundance fitness of the first is higher: 0.073 ± 0.062 for the first, -0.165 ± 0.077 for the second.

Going from D36S to D36K, the abundance fitness rises from -0.045 ± 0.053 to 0.112 ± 0.075.

Going from D36W to D36C, the abundance fitness falls from 0.006 ± 0.071 to -0.182 ± 0.11.

Going from L3H to L3F, the abundance fitness rises from -0.206 ± 0.091 to 0.05 ± 0.061.

Compared with I32F, I32P is lower in abundance fitness: 0.018 ± 0.063 for the first, -0.726 ± 0.11 for the second.

Going from I32Y to I32C, the abundance fitness falls from -0.063 ± 0.088 to -0.557 ± 0.15.

First: E33W
Second: R17W
The abundance fitness of the first is lower: -0.629 ± 0.16 for the first, -0.346 ± 0.071 for the second.

Compared with R17D, R17K is higher in abundance fitness: -0.173 ± 0.078 for the first, 0.021 ± 0.077 for the second.

R17H and G16R are within error of each other in abundance fitness: 0.043 ± 0.11 for the first, -0.064 ± 0.053 for the second.

G16F and G16H are within error of each other in abundance fitness: -0.136 ± 0.083 for the first, -0.027 ± 0.091 for the second.

First: G16P
Second: G16Q
The abundance fitness of the first is lower: -0.608 ± 0.2 for the first, 0.019 ± 0.083 for the second.

Work on G16Y yielded an abundance fitness of 0.497 ± 0.18.
